Publication PMC5662698 (2017)
No end group written: not given here.

B1: DnaJ (natural protein)
chain: MAKQDYYEILGVSKTAEEREIRKAYKRLAMKYHPDRNQGDKEAEAKFKEIKEAYEVLTDSQKRAAYDQYGHAAFEQGGMGGGGFGGGADFSDIFGDVFGDIFGGGRGRQRAARGADLRYNMELTLEEAVRGVTKEIRIPTLEECDVCHGSGAKPGTQPQTCPTCHGSGQVQMRQGFFAVQQTCPHCQGRGTLIKDPCNKCHGHGRVERSKTLSVKIPAGVDTGDRIRLAGEGEAGEHGAPAGDLYVQVQVKQHPIFEREGNNLYCEVPINFAMAALGGEIEVPTLDGRVKLKVPGETQTGKLFRMRGKGVKSVRGGAQGDLLCRVVVETPVGLNERQKQLLQELQESFGGPTGEHNSPRSKSFFDGVKKFFDDLTR

What was measured:
[1] = molecular target: BiP EPR construct BiP-C41A/C420A/V429C (human, UniProt P11021 19-654, C41A | C420A | V429C); test: FP
human BiP, wild type = human BiP, wild type (human, UniProt P11021 19-654); test: FP
[2] = molecular target: BiP FRET construct BiP-C41A/C420A/V429C/T462C (human, UniProt P11021 19-654, C41A | C420A | V429C | T462C); test: FP
BiP-C41A/C420A = BiP-C41A/C420A (Homo sapiens); test: FP
DnaK-C15A/M404C/T437C = molecular target: T1, DnaK-C15A/M404C/T437C (Escherichia coli (strain K12)); test: FP
T1 chain: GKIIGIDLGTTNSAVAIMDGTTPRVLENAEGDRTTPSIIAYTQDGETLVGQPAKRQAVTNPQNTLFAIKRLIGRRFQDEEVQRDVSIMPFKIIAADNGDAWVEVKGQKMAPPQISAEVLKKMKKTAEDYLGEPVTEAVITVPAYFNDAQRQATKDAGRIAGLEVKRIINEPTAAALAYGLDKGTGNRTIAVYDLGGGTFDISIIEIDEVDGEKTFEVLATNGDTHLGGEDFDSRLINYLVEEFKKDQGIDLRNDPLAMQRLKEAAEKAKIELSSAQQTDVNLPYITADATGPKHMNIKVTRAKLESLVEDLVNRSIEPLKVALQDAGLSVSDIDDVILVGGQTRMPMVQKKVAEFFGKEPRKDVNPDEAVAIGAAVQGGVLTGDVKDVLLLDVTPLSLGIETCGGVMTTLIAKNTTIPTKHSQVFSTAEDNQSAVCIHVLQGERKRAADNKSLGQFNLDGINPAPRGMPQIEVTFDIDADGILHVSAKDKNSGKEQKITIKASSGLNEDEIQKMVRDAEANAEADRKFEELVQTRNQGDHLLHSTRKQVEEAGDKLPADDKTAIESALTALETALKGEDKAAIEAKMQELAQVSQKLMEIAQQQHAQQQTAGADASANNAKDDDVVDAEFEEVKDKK

[3] = molecular target: TMR-labeled DnaK (DnaK FRET construct C15A/M404C/T437C labelled with tetramethylrhodamine) (E. coli, UniProt P0A6Y8 1-638, C15A | M404C | T437C, tetramethylrhodamine (TMR, from 5-IATR) on both introduced cysteines (M404C, T437C)); test: ATP

human BiP, wild type, sequence (P11021 19-654): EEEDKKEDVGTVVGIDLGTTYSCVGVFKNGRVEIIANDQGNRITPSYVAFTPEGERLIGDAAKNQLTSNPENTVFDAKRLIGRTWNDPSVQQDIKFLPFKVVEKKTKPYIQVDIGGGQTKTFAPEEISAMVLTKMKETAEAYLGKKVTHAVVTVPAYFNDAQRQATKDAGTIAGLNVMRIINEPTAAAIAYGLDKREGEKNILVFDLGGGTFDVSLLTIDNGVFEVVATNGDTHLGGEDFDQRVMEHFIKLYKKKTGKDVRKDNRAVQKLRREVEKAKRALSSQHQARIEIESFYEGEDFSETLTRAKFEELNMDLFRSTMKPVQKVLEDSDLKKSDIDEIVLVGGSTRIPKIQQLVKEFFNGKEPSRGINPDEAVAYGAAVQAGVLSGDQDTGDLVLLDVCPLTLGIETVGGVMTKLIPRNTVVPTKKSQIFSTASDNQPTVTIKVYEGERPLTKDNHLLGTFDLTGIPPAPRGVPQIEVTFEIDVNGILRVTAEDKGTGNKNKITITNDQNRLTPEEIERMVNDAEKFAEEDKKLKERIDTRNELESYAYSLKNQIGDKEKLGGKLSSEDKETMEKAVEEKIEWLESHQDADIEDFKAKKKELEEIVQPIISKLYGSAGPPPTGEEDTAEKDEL
BiP FRET construct BiP-C41A/C420A/V429C/T462C, sequence (P11021 19-654 C41A/C420A/V429C/T462C): as the sequence (P11021 19-654) above, with C23A, C402A, V411C, T444C counted along it
BiP-C41A/C420A (Homo sapiens), sequence (chain, as listed by the source C41A C420A): as the sequence (P11021 19-654) above, with C23A, C402A counted along it
BiP EPR construct BiP-C41A/C420A/V429C, sequence (P11021 19-654 C41A/C420A/V429C): as the sequence (P11021 19-654) above, with C23A, C402A, V411C counted along it

Binder	Kd [1] [µM]	Kd (human BiP, wild type) [µM]	Kd [2] [µM]	Kd (BiP-C41A/C420A) [µM]	Kd (DnaK-C15A/M404C/T437C) [µM]	Kd [3] [µM]
fluorescein-NRLLLTG [NR peptide (NRLLLTG), fluorescein-labelled]	0.82	0.91	0.61	0.85	2.12	
B1						0.182
